Laboratory results taken from patent US20240124535A1 (Molecular Partners, published 2024).
Where two headings read alike, the source gives them in different places.

What was measured:
[1] = target: T1, cynomolgus monkey serum albumin (cynomolgus monkey (Macaca fascicularis), UniProt A2V9Z4 25-608); experiment: ELISA, serum albumin immobilized on plate, in PBST-C
Experimental: (§1) Samples of proteins of Example 2 were subjected to ELISA serum albumin cross-reactivity analyses as described in WO2016156596. 100 μl of 20 nM serum albumin in PBS per well were immobilized in a Maxisorp plate (Nunc, Denmark) overnight at 4° C. After washing 5 times with 300 μl PBST (PBS supplemented with 0.1% Tween 20), the wells were blocked with 300 μl PBST-C(PBST supplemented with 0.25% casein) for 2 h at room temperature with shaking at 450 rpm on a Titramax 1000 shaker (Heidolph, Germany). After washing 5 times as described above, 100 μl/well or 50 μl/well proteins #2, #3, or #4 (concentrations ranging from 100 nM to 0.01 pM for each protein) in PBST-C were applied and incubated for 2 h at room temperature with shaking at 450 rpm. After washing 5 times as described above, binding of the proteins was detected using 100 μl rabbit anti-designed ankyrin repeat domain monoclonal antibody in PBST-C for 1 h at room temperature with shaking at 450 rpm. After washing 5 times as described above, bound anti-designed ankyrin repeat domain antibody was detected using 100 μl/well goat anti-rabbit IgG-HRP conjugate in PBST-C for 1 h at room temperature with shaking at 450 rpm. After washing 5 times as described above, the ELISA was then developed using 100 μl BM soluble blue POD substrate (Roche, Switzerland), diluted 1:4 in water. The reaction was stopped after 5 min using 100 μl 1 M H2504. The OD (OD 450 nm-OD 620 nm) was then recorded. EC 50 values were determined using Graph Pad Prism (Table 3). […] The measured EC₅₀ values for cynomolgus monkey serum albumin binding are below 20 nM for proteins #2, #3, and #4.

mouse serum albumin [2] = target: T2, mouse serum albumin (mouse, UniProt P07724 25-608); experiment: as above
Experimental: as §1

human serum albumin [3] = target: T3, human serum albumin (human, UniProt P02768 25-609); experiment: as above
Experimental: as §1

[4] = target: T1, cynomolgus monkey serum albumin; experiment: as above; remark: listed apart in the source
Experimental: as §1

mouse serum albumin [5] = target: T2, mouse serum albumin; experiment: as above; remark: listed apart in the source
Experimental: as §1

human serum albumin [6] = target: T3, human serum albumin; experiment: as above; remark: listed apart in the source
Experimental: as §1

human serum albumin [7] = target: T3, human serum albumin; experiment: SPR, ProteOn system (BioRad), in PBS
Experimental: Affinity of proteins of Example 2 to human serum albumin were determined by SPR measurements using a ProteOn system (BioRad) in PBS according to standard procedures known to the person skilled in the art.

T1 sequence (A2V9Z4 25-608 limits assumed): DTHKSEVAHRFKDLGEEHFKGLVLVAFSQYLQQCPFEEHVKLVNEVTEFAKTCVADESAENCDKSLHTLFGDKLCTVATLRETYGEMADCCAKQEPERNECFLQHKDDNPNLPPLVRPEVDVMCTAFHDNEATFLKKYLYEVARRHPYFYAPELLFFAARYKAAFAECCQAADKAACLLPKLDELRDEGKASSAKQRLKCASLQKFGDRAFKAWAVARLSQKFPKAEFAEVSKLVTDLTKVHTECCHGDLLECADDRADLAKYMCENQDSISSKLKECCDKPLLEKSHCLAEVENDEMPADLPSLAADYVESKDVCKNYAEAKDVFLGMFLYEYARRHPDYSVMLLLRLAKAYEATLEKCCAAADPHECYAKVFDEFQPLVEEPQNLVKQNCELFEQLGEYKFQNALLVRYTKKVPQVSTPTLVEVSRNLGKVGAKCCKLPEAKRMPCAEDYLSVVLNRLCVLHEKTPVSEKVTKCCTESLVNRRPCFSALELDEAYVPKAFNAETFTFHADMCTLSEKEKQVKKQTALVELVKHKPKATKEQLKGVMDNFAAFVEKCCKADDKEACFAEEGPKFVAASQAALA
T3 sequence (P02768 25-609 limits assumed): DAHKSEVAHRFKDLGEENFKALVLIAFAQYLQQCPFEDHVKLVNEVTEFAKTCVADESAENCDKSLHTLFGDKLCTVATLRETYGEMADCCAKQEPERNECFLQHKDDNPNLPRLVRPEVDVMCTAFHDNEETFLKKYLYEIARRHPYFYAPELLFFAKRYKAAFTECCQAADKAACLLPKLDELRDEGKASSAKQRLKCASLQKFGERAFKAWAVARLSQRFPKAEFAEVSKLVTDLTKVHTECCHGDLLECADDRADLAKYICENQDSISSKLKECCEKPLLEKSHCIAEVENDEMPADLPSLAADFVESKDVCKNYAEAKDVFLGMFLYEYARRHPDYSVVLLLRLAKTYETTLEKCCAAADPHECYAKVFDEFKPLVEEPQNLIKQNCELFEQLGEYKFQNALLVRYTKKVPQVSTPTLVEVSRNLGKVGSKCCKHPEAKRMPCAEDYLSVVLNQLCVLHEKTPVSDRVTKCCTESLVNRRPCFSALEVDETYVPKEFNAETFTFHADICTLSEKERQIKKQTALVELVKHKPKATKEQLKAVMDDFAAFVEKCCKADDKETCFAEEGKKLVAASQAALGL

B1: Protein #2 (SEQ ID NO: 2 with a His-tag (SEQ ID NO: 1) fused to its N-terminus) (designed binder)
chain: MRGSHHHHHHGSDLGKKLLEAARAGQDDEVRELLKAGADVNAKDYFSHTPLHLAARNGHLKIVEVLLKAGADVNAKDFAGKTPLHLAANEGHLEIVEVLLKAGADVNAQDIFGKTPADIAADAGHEDIAEVLQKAA
- EC50 [1]: 2.8 nM
- EC50 (mouse serum albumin [2]): 9.6 nM
- EC50 (human serum albumin [3]): 0.32 nM
- EC50 [4]: < 20 nM
- EC50 (mouse serum albumin [5]): < 30 nM
- EC50 (human serum albumin [6]): < 1 nM
- Kd (human serum albumin [7]): 31.1 nM

B2: Protein #4 (SEQ ID NO: 4 with a His-tag (SEQ ID NO: 1) fused to its N-terminus) (designed binder)
chain: MRGSHHHHHHGSDLGKKLLEAARAGQDDEVRELLKAGADVNAKDYFSHTPLHLAARNGHLKIVEVLLKAGADVNAKDFAGKTPLHLAADAGHLEIVEVLLKAGADVNAQDIFGKTPADIAADAGHEDIAEVLQKAA
- EC50 [1]: 13.1 nM
- EC50 (mouse serum albumin [2]): 24 nM
- EC50 (human serum albumin [3]): 0.84 nM
- EC50 [4]: < 20 nM
- EC50 (mouse serum albumin [5]): < 30 nM
- EC50 (human serum albumin [6]): < 1 nM
- Kd (human serum albumin [7]): 34.4 nM

B3: Protein #3 (SEQ ID NO: 3 with a His-tag (SEQ ID NO: 1) fused to its N-terminus) (designed binder)
chain: MRGSHHHHHHGSDLGKKLLEAARAGQDDEVRELLKAGADVNAKDYFSHTPLHLAARNGHLKIVEVLLKAGADVNAKDFAGKTPLHLAAADGHLEIVEVLLKAGADVNAQDIFGKTPADIAADAGHEDIAEVLQKAA
- EC50 [1]: 6.8 nM
- EC50 (mouse serum albumin [2]): 14.7 nM
- EC50 (human serum albumin [3]): 0.64 nM
- EC50 [4]: < 20 nM
- EC50 (mouse serum albumin [5]): < 30 nM
- EC50 (human serum albumin [6]): < 1 nM
- Kd (human serum albumin [7]): 35.5 nM
